Reference: US20020115631A1 (IDUN PHARMACEUTICALS, published 2002)

T1: full length human Bad expressed as a fusion protein with the DNA-binding protein LexA (bait, vector pEGE202) (human, UniProt P0A7C2 1-202 (Escherichia coli entry))
T1 construct: Expressed in yeast EGY191 for the two-hybrid assay; also called Bad-bait; LexA-Bad
T1 sequence: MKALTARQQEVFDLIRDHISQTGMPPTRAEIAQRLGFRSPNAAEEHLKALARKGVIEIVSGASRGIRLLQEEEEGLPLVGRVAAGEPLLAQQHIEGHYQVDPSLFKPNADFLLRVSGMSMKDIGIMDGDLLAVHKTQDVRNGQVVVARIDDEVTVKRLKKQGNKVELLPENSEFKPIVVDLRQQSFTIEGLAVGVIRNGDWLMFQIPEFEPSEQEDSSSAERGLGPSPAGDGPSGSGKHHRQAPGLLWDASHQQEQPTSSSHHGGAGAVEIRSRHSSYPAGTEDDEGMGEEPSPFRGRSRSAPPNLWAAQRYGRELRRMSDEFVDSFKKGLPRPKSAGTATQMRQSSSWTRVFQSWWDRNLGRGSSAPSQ

B1: human Bak expressed as a fusion protein with the transcriptional activator B42 (prey, vector pJG4-5) (other, UniProt Q16611 1-187, looked up, not shown: large carriers)
chain: MASGQGPGPPRQECGEPALPSASEEQVAQDTEEVFRSYVFYRHQQEQEAEGVAAPADPEMVTLPLQPSSTMGQVGRQLAIIGDDINRRYDSEFQTMLQHLQPTAENAYEYFTKIATSLFESGINWGRVVALLGFGYRLALHVYQHGLTGFLGQVTRFVVDFMLHHCIARWIAQRGGWVAALNLGNGP
notes: no residue range is printed; also called B42-Bak
B2: 6HBad fusion protein (full length human Bad with N-terminal six residue Histidine tag, construct pET-15 6H Bad) (other, not shown: small tags and cut ends)
chain: MFQIPEFEPSEQEDSSSAERGLGPSPAGDGPSGSGKHHRQAPGLLWDASHQQEQPTSSSHHGGAGAVEIRSRHSSYPAGTEDDEGMGEEPSPFRGRSRSAPPNLWAAQRYGRELRRMSDEFVDSFKKGLPRPKSAGTATQMRQSSSWTRVFQSWWDRNLGRGSSAPSQ
notes: Made in E. coli BL21 plysS, purified on nickel, coated on ELISA plates at 4 ug/ml; also called human 6HBad
B3: human Bad expressed as a fusion protein with the transcriptional activator B42 (prey, vector pJG4-5) (other, not shown: large carriers)
chain: B2 chain
notes: also called itself; B42-Bad

How the values were obtained:
[1] = target: T1, full length human Bad expressed as a …; assay: yeast two-hybrid, beta-galactosidase reporter (LexA-Bad bait, B42 prey)
Excerpt: Briefly, the full length human Bad sequence was subcloned into the yeast 2-hybrid vector pEGE202, or “bait-vector” to express Bad as a fusion protein wish the DNA-binding protein LexA (Ruden et al., Nature (1991) 350:426-430). Human Bcl-2, Bcl-X, Bax, Bak and Bad were similarly cloned into the yeast 2-hybrid vector pJG4-5, or “prey-vector” to expressed these Bcl-2 family members as fusion proteins with the transcriptional activator B42 (Gyuris et al., Cell (1993) 75:791-803). Briefly, the full length human Bad sequence was amplified by PCR and subcloned into the bait-vector. For the PCR reaction we used the following primers: 5′ATCAGTGAATTCACTATGTTCCAGATCCCA GAC3′ (SEQ ID NO: 4) and 5′ ATCGATCTCGAGTCACTGGGAGGGGGCGGA GCT3′ (SEQ ID NO: 5). The resultant PCR fragment was digested with EcoRI and Xho I and then subcloned into the bait vector. The human Bad sequence was also PCR amplified and subcloned into the prey-vector using the same primers and subcloning strategy as described above. […]
To determine if human Bad binds to any of the above Bcl-2 family members, the Bad-bait plasmid was cotransformed with every prey plasmid and the reporter plasmid p18-34 into the yeast strain EGY191. […] The reaction was stopped with 0.4 M NaOH and the plate was read at an OD 420 nm.

[2] = target: T2, GST-Bax fusion protein (pGEX 4T1, N-terminal glutathione-S-transferase tag) (human, UniProt Q07812 1-171); assay: ELISA, 6HBad coated on the plate, GST fusion in solution, anti-GST detection
T2 construct: no residue range is printed; also called pGEX Bax

[3] = target: T3, GST-Bcl-xL fusion protein (pGEX 4T1, N-terminal glutathione-S-transferase tag) (human, UniProt Q07817 1-212); assay: as above
T3 construct: no residue range is printed; also called pGEX-Bcl-XL
T3 sequence (Q07817 1-212): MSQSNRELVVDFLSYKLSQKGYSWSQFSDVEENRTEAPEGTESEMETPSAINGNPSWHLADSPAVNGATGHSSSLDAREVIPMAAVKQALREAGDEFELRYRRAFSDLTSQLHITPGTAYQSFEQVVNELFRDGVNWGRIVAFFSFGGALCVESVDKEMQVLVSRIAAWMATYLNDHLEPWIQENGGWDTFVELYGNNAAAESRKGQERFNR

T2 sequence (Q07812 1-171): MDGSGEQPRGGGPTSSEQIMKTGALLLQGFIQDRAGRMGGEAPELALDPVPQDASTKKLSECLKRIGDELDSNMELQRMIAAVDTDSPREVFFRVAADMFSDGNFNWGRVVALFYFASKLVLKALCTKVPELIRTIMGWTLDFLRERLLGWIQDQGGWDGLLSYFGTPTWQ

Row | Binder | binding result [1] | binding result [2] | binding result [3]
1 | B1 | no binding | – | –
2 | B2 | – | no binding | binds
3 | B3 | no binding | – | –
